Data from publication PMC4760761.

Molecular target: T1, CodY-6His (Listeria monocytogenes) (UniProt A0A0H3GGF1)
T1 sequence: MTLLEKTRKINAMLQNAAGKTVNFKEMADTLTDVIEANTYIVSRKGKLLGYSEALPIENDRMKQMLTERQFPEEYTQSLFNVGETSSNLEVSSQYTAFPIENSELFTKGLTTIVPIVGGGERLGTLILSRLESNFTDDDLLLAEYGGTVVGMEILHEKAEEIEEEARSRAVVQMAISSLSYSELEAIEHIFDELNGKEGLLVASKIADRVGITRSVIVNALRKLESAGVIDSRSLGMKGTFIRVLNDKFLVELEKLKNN
Test: EMSA
Details: EMSA: 20 mM Tris-Cl pH 8, 50 mM KCl, 2 mM MgCl2, 0.5 mM EDTA, 1 mM DTT, 0.05% NP-40, 5% glycerol, 25 ug/ml salmon sperm DNA, 4 ng DIG-DNA, 15 min room …

Substance | Kd [nM]
AAAAGTAACATTTATTTTTCAGAAAAAATTTTTTAATTTTTACCGCGATGGATTCATTCGCGGTTTTTTTGTATGTAATGCATTGGTATATAAGGCTTTATCTATAATGTTAGATTATCTAACATAAATTTGACAAAACATCTAACGTACATTATAATGCTACTATCATCAAAAAAATAATTATGTTTTGAGGGGGAATTGTCGTGAGCGAAAAGGAAATCCGGAGATCGATGCCGCTTTTTCCAATTGGGCCTGTGATGAAGCTAACTGATCTCACTGCTAGACAAATTCGCTACTATG (double strand) [glnR upstream probe] | 74
AACCGTCACTTGTGGCGGTTTTTTTGTGTTTTCATCTTTGTGAATTAATTTTGATTTCTTTTAAAATTGGTTATAACTCTCGCGAATTGGGGTAAAAGTAAAGAGGCAGATGAAGATACATTGTGAAAAATTGATATGATAGGACAAGTCGTTTGATTGACAGCGTTTTCTTGATATGATTAAATAGACTCAAGTTAATTAACATGTCAGGAGAAGAGATGACAATCGAAACGATGCAAGGGTACTAGTGTGCCTACGTTTTGATTGTCATTCTTTTTTTGAAGTTAATTGATAATCGGAATGTAAGGGGACTAGTAAGTGTTAAAATTCCGGTGCTACAAATAAGCAAGAAGAAGGAGTTGGAAAAGATGATTGACACAAGTTTAGCAACACAATTTCTAGGTGAAGTCATTGGTACGGCTATACTAATTATTTTAGGTGCTGGTGTCGTAGCAGGTGTTTCACTGAAAAGATCCAAAGCAGAGAATG (double strand) [glpF (LMRG_01431) upstream probe] | 114
ATTCAACCCTCTTTCAAAATTCTTTTTCCCAAGTGCTTTAAATGGTACACTAATTATACCATAAGCAACTATTTTTCTATTCATTATTTACAAAAACGCTTTAACGTGCTAATATGCTAATAAACTAAAATATCGTAAAGGAGCTAACCAGATGAACTTAAATAAGAACTTACCAACTGGAACACGTGATAAACTTTTTCGTGAAGCACGAGCTGCATACAAAATTGAGCAACAAGTGAATCATTATTTT (double strand) [hisZ (LMRG_00251) upstream probe] | 150
ATTCGCTCAACTCCTTCAATATAACTTCAATAACAAGTATAGCAGTTTTATGAACAGGAACCAATTTATTACTATTTGAAATGATTATTTTTATTTAGAAATGTATTTTTAAGCATAATTATGAATAAATGAAAATAAAAAGGTTGATATCTAAAAGCATCGATGTTAATATAAATACAAATGTTTGTATATTTATGAATAGGGGATGTTTAAAATGGCGAAAGAAAAAATCGTATTAGCTTACTCAGGTGGGTTAGATACTTCTGTGGCAATTCAGTGGTTAGTAGAATCAGGTTATGAAGTTATTGCATGTT (double strand) [argG (LMRG_01241) upstream probe] | 70
CATTAAATCCTCCCTCTTCCCATTATTACCTTTCAATATCCTTAATGGACATTTAACATCTATATACAATACACCCATTTTTTTTAAAGTGCAAGAGTTTTTTACTAAAAATGGAAAAAAATTTAATGAATGCGTTTGCTGCGAATAGAACAACTATAAGCATTGTCTCAAAAATTTTTCCTGGCTAAGAAAAAAACTGGAATAATTTTCGAAAACAAACGTGCTAATCTTATACATGTTCCAACAAACAATTACTTAGGAGGTGCTTTTCTCGTGTTAACTGATGATGTTCCAAAAAAATCACATTTACCATTAATTAAGCATCATTCTAATTACTTATAGCTTCGTTTAGTTGTATTTTCGCAAACAAAAAATTGGGAGGTAACATACAATGTCTAAACAAGCAAAGTCTTTAACCTTATTCGGATTTTTCGCCATCACGGCTTCCATGGTTATGACCGTTTATGAATATCCAACATTTGCCACTTCCG (double strand) [gadC-gadG (LMRG_01480) upstream probe] | 25
CTTCTATATCTACTCATTAAAACCTAAGCAAACGTTCTCATTAACTACATTTTAAAAAATTTCAGAAAAATTGGTTTTTATGCTTGAAAATATTCTCAACAATGTGTAAACTAACAACATAGGTAAGAAAAGTTGACCAAATTTCAGAAAAATTTACTTAACGCACACAAGCCAATGTTTTTCTTCTTTATAACATTGCATGTATTTGCGTCAGGTTTTCTACTTTTCCTTATAGTCAAAATATTTAAACAAGGAGCGATTATAGTATGGCACAAACATCCACTATCCAAAACGACACAAAGGCAGCCGAAGAATACGCAGCTCGAGTGTTTGAAACAATTAAACAACGGAATCCTGGCGAAACGGAATTCCACCAAGCAGTTGAAGAATTCTTAAACTCTGTTATCCCAGCCCTTGCAAAAGAACCTAAATACGAAGCAAATGGCATTTTAGAACAGTTAACAGAACCCGAACGCCTTATCAGTTTCCGAGTTCCATGGGTGGATGATTCTGGCA (double strand) [gdhA (LMRG_00242) upstream probe] | 57
GAAGAAGTGAAGACGTACCTCATTCTTTAGAGAGCATTTACTGGTGAGTAAACGTATTTAAAGAGTGGAGCGTTTTTATTTTTGAATGTTTTAATTTTATTAGTTAGGGTAAAATCGACAGTATACTTAAAATTAGATGGGGTGAAGTGATGAATATTAGTATAGAAATAAAAGAACGTGATACTGACCACATAGACATATTTGTTGCTGGGGAGATCGATGCTTATACAGCGCCAAAGGTAAAAGAAGCATTAGAAGTATATCAAGTTAAAGAGGG (double strand) [rsbV-sigB (LMRG_02317) upstream probe] | 152
GTTAATTGCCTCCATTAATATACATATTATAGTTACCATTTTACTATAAAAAAGAACAACTTGACAGAAAAAAAGTGATTAAAAACAGCTCCAGCACTTATTTCCGTGTATCAATACAGAGGTAAAAAGGCATGCCACTTAGGCAAAAGACGGCTATGCTCTTAAGAAATTTTTTTGCTGTTATACCCTACTATTTTGCTATTCTAACAGCAATTTCAAAAAAACACTTCATATTAAGGTCTGTTCGTGATAAAATGAACATAGTTGATAATGATTATCATGTTCATTACATAACATAAAAGGAGGCCTGCTAGCTTATGCAATTAAATGAAACTGCTGTCGGTGAAAAAGTTCGCATCTCAGAATTAAAAATTGAGAACGCTATGCTTAAACGTCGCTTACTTGCACTTGGTTGCGATGAAGGTTGTGATATTTGTATCAAACAAAAAGGACTATTTGGTG (double strand) [feoA (LMRG_01257) upstream probe] | 90
TATAATTCTCCTTTAATAGTTTAATGTTGGTTAAACTAGCTGAAGGATTGAAGAGTTTATTTCACTCTTACTTTCTAAACAATCCTAAAGCCATTGTTAGAAAGTCGAGAGCAGTGCAATTTTGTTTGCATCTCTTTGATCACCACCTTGCCTTCATTATAAGCACTTCTGAATTGTTCGTCAATTCTCTTTTATGAATACTCTTCTAAAAACAGGGTAAACGAAAACTATTGGACATTAGAGAAAACATCCATGGGAGGAGAAAGTAAAATGAAAAAAGTAAAAGCAAGTGAAACACTCGTACAAACATTAAAAAATTGGGGTATCGACCACGTATATGGCTTGCCCGGCGATTCGATTGACACCGTAGTTGACGCTTTACGAAAAGAAC (double strand) [poxB (LMRG_00411) upstream probe] | 55
TTAACAAATGTTAGAGAAAAATTAATTCTCCAAGTGATATTCTTAAAATAATTCATGAATATTTTTTCTTATATTAGCTAATTAAGAAGATAATTAACTGCTAATCCAATTTTTAACGGAATAAATTAGTGAAAATGAAGGCCGAATTTTCCTTGTTCTAAAAAGGTTGTATTAGCGTATCACGAGGAGGGAGTATAAGTGGGATTAAATAGATTTATGCGTGCGATGATGGTAGTTTTCATTACTGCCAACTGCATTACGATTAACCCCGACATAATATTTGCAGCGACAGATA (double strand) [actA (LMRG_02626) upstream probe] | 208
fliN (LMRG_02874) upstream probe | 26
glnR upstream probe | 74
